Experimental data reported in a protein production outcome set (Wang et al. 2014).

Assay: label from the status in PepcDB records
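Also: failed if final PepcDB status was selected cloned or expressed and not failed if soluble or beyond.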

Sequence | protein production
MSIPNGGSHQSLEALLAAYDFRLRHEPRNCTLWNNRGILLERLNRWTEALASYNCALEITPQRQEALNNRAIVLEHLGRLPEAVESYEQALAIDRQQPEVWNNRGIVLRKLGRLEDAIASYQQAIALAAHYAQAWANCGFALWQQGRYREAVRHYEQSVAIDPDQSSAWRQLGQIYLSVDQPDQALRCLDQAIALQPQQATAWTWRGHALYNLGQYAAALTSYENAELLGDRPLLLSIQRGHTLAQLERYEEALASYAAILPQLTGEAAAEVAYYQGLVWAYLQDWTAALAAFDQAIAGNPDLAEAWYNRAALHARLDQPVAAIADLQQAIALDPDTYRSLAAEDPDYQTLHAHPDWIQLQRA | failed
MSIPSFLKLVEIQTKIASVFPFMLGTLFVVYQYDMFKPINTLIIFGSMLIFDLTTTAINNYMDYRKATDNHDYDYRTTSNVIGQEQIPVRTVIITIFLMFFIATGLGVWLVFRTDLLVLLIGFVCFCIGILYTFGPVPLSRMPLGEIFSGVTMGFGIFFLAVYVNAYDAGIANLLWQGEMVTIQFNLIEIIRIGVVSLPCIFTIANIMLANNLCDLDEDIRNHRYTLPYYIGRKMGVLLFNTLYYASFLAVVVSVAINFLHPIMLLSLITIYPVYRNLVKFNKEQVKSKTFVIGIRNFVLINATLTILMAVSVVLQQLT | failed
MSIREVIMDYLENSSKKALSVEELSVALHMNKAKDYKVFVKTLASLEAEHLLNFTAKGKVELAEKEEAKVVISGIFRANAAGFGFVSIDAEEPDVFVARGQTAFALDGDEVFIEIDKNANALKGTSAEGHVVEIIRHDVHQVVGTFVALNDDEKEQTGLIGFVKSRNKKIPYRVYLENEGLIPENKAIVRVEITHYPDKEFPQTMQGLVTEIIGQADDQGIDVLEVLASMDIVSEFPKEVLDQAEAVPEEVPENEIVGRVDYRNEITFTIDGADAKDLDDAVHAKRLENGNYELGVHIADVSHYVTENSPLDKEAYERGTSVYVTDRVVPMLPERLSNGICSLNPRINRLTQSCVMEISPEGRVINYQISQSIIKTTERMTYDAVNQMIAGDEAALENYAKIADSVKIMVELHHILEAMRKRRGAIDFDTVEAKIIVNEKGLPIEIRKRTRGIAERMIESFMLEANETVATHFEAHGLPFIYRIHEQPKADRLQRFIDFAATFGMQIEGTSNGIDQKVLQAFMKKIKGQPGEMVLSTMLLRSMQQARYSENNEGHFGLAAENYTHFTSPIRRYPDLLVHRLIREIGEGKTPANILQKWEDKIPEIAEHSSHRERRAVDAEREVEKMKKAEFMEEHVGEEYEGIIASVTRFGMFIELENTIEGLVHISTLKGDYFNYQERMLALIGERSGLTFKIGQPIKIKVVKADRMTGEIDFEYLPSELDLIDKAAKAKKKPDHKGRKKSNQSLKVKSVAPKSTDKSANKSKNGRRADEKFEFDKKKKKSAKKPFYSKAAKGKFTDKKDNGKKFTDGRKKPHKRG | failed
MSIRLKTALLSGILLAILVSGLGGVLWTVVRPGFQDIERARAADHMTALLAAISADIDSIGTFILSYSSWDETYAFVRTGDPTYVANNLAVEGAKNAQSHFALVLTPKGRTVFSRLWNDDFTATLPPPDAAGGGLPANHPLMAALSHPEGVRGLLQTPRGPLAVAARPILPSNEHGPPRGVLVFGRWLTHALSDHPPLPHLSPLRLWLAPAPGDAPENVRRLLAADGPDLEIDGIGEPTSLVTAGIRLVDLEGAPVAALTTTLAKTVEPQGESIIRLALVIAALGSLGVVAVGLVSNHLMIVAPLRRLESHITTLSRTGDLDTRLVLDRKDEIGLLARAFATMQGRIRHLAHYDPLTGLPNRTLFTMLGEGALARRRADRNGGGRRVGVAILDLDRLNTLTIGLGQGGSERALVAVGRRLAALAGPADVVARGGDGRFLVLLGDLAPAQAGSIVEREAAERLASAFAKPFTPDDLVGAPLSLTASIGLALFPQDGETLETLVTHAEVAVHQAKLLGRNNFQFFDDTLNRQAREILALESALYEALADNTLSLCFQPRIDAVRGHAIELKALARWDHPSRDLIVLEDVLPLIKQDGLLAEIDRWMSNAACRQIRQWRDQGVSFPPIAIALSARPLTAGDPGLAPIAEAIAANGVDPGDLAVEIAQSAIKGQFPETKAPETQAPEDRPAEELPWPDGLAGLGLGLVIDVADAGVVSPALLRRFPLTRLTIGAALVAKLPDCRESRALVRALIALADELDLECLAEGVERGDQADWLLAAGCRLQQGLFHARPQDQTVILRWLGQTPPRGLSSPGPRDRKQDGV | failed
MSITERFFYLEKEPCVIYLPEKPNGFSVMLLGDYNYFIENGTSLWTQHTGRSYFLHGLIEEGYTVFSSNLYGRHWGNDQSVRLAKRLYDVVLRKETLNAKMHIMADGMGALVALEMMNKYPECIRSVIMLNPCLDLPEYVEFEKEHKFFYKRLLKELSLAYDAKEEELEA | failed
MSITRRDILKGAAATGAIAATSVLSGCQKTGATNSMADLAHKIKRPNLLIIFPDEMRAQALGFMGEDPSLTPNLNRFAKDSAVLKQAVSNFPLCTPFRGMLMTGQYPYRNGIQGNSHTATPGMFGGKDFGIELKKNQSTWSDILSQQGYSMGYIGKWHLDAPEAPFVPSYNNPMEGRYWNDWTTPDRRHGFDFWYSYGTYDKHLTPMYWTNDTPRDQPLHINQWSPEHEADIAIKYLRNENGNYRNNDKPFTLVVSMNPPHSPYDQVPQKYLDRFKESSRTLNSRPNVQWDKEYLEGYGPEYFKEYMAMVNGVDEQFGRIVDELDALNLAKDTLVVFFSDHGCCMGSNGNPTKNVHYEEAMRIPMMFRWPGKIAPKSDDLLFSAPDIYPTLFGLMGMDDLIPDTVEGTDFSKTVKSESGDIKPTSQFYTFMPYGGQSYGRRGIRNKQYTLMIDRKIGKPLTYVLHDNQVDPYQMKNIAEQQPELISQLIQNELMPWLEHTGDPWRPTEVPKNTANAYT | failed
MSIWWLNNTVRVAREKEAVENLATETEWFVLDRWEIHDYKFAAIGSIVAHGATYPIRLVYPDNFPLVPAWVEPQDPEAKWSYHQYGKGGALCLELRPDNWTSRANGADVLRSAYGLLNLENPLGDGEKGKVTSAHNVGEIQKYNWGESPVFIGQECLTRLLSGDIQDVNALRWSASDKVWPIFLSDAVDRQGVQRPPSADLNTWRLHVPVALVSGKVPDGLPSERSTFISTLWESSPVEGEVNFVTVFIEDDGINVFHVLSDNAYHRKVYVLPPETGLRSGRAPSAQAKKVAVVGAGSVGSKVAEMLLRSGIDTLRIFDGDVFLPGNLERHVLDWRDVGYHKVHGLKRRLLHIVPGADIMTIDQNLNWQKSARTNALHFDLITACDIIVDASGDPATSMLLGALAFENKKPFVSVEVFEGGIGALVAPSVPERNAAYTLGREALLNWTDEKGRVVPLSAGDRAYEAISDDGDIIVADDAAISMAASHAARVVLDILDDKLDDFRWLLIGFRKEWAFDMHGHVIALDVGGPSEWNNNTEDADAQKFVIEIAGELLDVLKAFTQ | failed
MSIYMIGLIRHSETKVFNKALIQGSLIAYIVFMLFAWGGEAIFSKYLNVRFEAFQIFGGLIFLVIGYRYVFQGADTIGEMRGAPEHLAGTIAMPFMIGPGTISAAVVTGIEMSIGAAALVIGFTMFLTCSILILMKFSHDHLRYKHAKYIDRYFDIVGRLSALLIGTIAVDMIINGVTGLIHKV | failed
MSKAIVLDSHLKEKGSVELPKRYESINSHNLYLYVKHYLSSARANTAKSKNRAEVSGGGRKPWAQKGGGRARAGSITSPVFVGGGVSHGATNNRNYNLKINKKQKRLALEYALEEKAQANKLFVVEKIAIKGVVEDNKRKHLTKEANQMFQALEQRDTLFVCMNMDEYTELAFSNLKKCLIVDVSELNAYLLAAFSSVVMEEAAFQHVVQDKTEE | failed
MSKDVKPTRKNLMAIEDRIELSERGHDTLEKKRDGLIMEFMDILDQAQDVRSDLDENYERAQRNINMARAMEGDVAVRGAAAALKEHPEITTQSKNIMGVVVPQIESTKVKKSLDQRGYGLVGTSARIDEAADAYEELLETIILAAEVETAMKKMLDEIEKTKRRVNALEFKLLPELHEAQEYIEQKLEEQEREEIFRMKKIKAKKEEEEEENPVADTESAAEAAVTEAGQ | failed
